Source: US20110110934A1

Target: mG-CSF (recombinant murine G-CSF, R&D Systems Cat #414-CS) (mouse) (UniProt P09920)
Experiment: cell-based or functional assay

Chain of UniProt P09920 (P09920 31-208 limits assumed): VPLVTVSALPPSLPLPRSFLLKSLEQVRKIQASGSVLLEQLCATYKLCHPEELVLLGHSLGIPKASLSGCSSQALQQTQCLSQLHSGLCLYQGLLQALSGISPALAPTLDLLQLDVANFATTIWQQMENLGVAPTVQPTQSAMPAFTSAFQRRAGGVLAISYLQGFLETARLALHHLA

| Substance | inhibition of mG-CSF proliferation of hG-CSFR BaF3 cells (MTS reduction, 48 hours), IC50 [nM] |
| --- | --- |
| soluble hG-CSFR-Fc protein (from UniProt Q99062 25-627) (Fc fusion) | 0.022 |
| Anti-G-CSF (MAB414) (antibody) | 0.01 |
